B1: VPS39 (parent)
chain: ITEEKVCMVCKKKIGNSAFARYPN

Variants of: B1
Assay: protein stability index of a GFP-peptide fusion (GPS, HEK-293T) (PSI 1-6); higher = more stable
Details: c terminus: a fixed tail appended
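Note: lentivirally expressed fusions sorted by FACS into six bins by GFP to DsRed ratio, PSI derived from sequencing read proportions per bin multiplied by bin number.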

Protein stability index, by site and new letter:
V9: C 2.67
I1: M 2.2, S 2.59, R 2.13, G 3.1, D 3.39, C 2.24, N 2.78, H 2.59, Q 2.91, Y 2.49, F 2.67, W 2.33, V 2.95, L 2.5, E 3.18, P 2.35, A 2.97, K 2.6, T 2.88
E4: V 1.91, S 1.74, N 2.12, D 2.94, P 2.39, Q 2.38, I 2.06, C 1.57, K 1.86, F 1.77, R 2.15, Y 2.15, G 1.5, M 2.57, A 1.47, H 1.82, L 2.09, T 1.83
C10: W 2.59, R 3.96, M 2.94, Y 2.64, I 2.45, G 4.21, D 3.67, E 4.15, F 2.04, A 3.13, N 4.14, S 4.14, L 2.38, P 3.97, V 2.84, H 3.32, K 2.77
E3: S 1.97, D 2.55, K 1.44, V 1.82, T 1.97, G 2.13, I 3, L 1.91, R 3.83, C 1.26, F 1.51, A 1.97, P 2.25, Y 2.03, Q 2.53, M 1.39, W 1.96, N 1.84, H 1.94
K12: N 2.8, W 2.18, A 2.28, P 2.25, T 1.77, D 2.63, R 1.83, M 1.64, F 1.68, G 1.97, C 2.93, V 1.74, E 2.46, Q 2.25, H 2.28, S 2.36, L 1.3
C7: G 2.46, W 2.02, A 2.81, E 4.24, R 2.54, M 2.79, V 3.31, F 2.78, Q 3.31, Y 2.53, H 3.47, L 2.77, S 2.98, P 3.64, I 2.2, N 4.1, K 3.1, D 4.19, T 3.18
K5: L 2.06, H 2.17, V 1.98, R 1.65, G 2.33, Q 2.42, S 2.53, I 1.78, E 2.62, A 2.63, T 2.09, F 2.21, P 2.87, M 2.23, N 3.66, Y 1.55, D 2.65, W 2.28, C 2.04
T2: N 2.79, Y 2.34, H 3.16, E 2.72, K 2.42, I 2.43, F 2.9, Q 3.19, A 2.94, W 1.77, R 2.55, L 3.59, D 2.92, P 2.53, G 2.15, V 2.67, M 2.02, C 2.32, S 2.27
V6: F 2.39, H 2.65, T 2.3, D 3.48, W 1.62, K 2.95, G 1.38, Q 2.48, S 3.06, N 3.42, A 1.83, P 2.88, I 3.18, E 2.8, C 1.95, L 2.21, R 2.44, Y 2.52, M 2.81
